Read-outs that look alike come from different tables or passages of the source.
Experiments:
Experiment in all cases: capture ELISA, antibody captured on plate, biotin-labeled human PD-1 Fc in solution
[1] = target: T1, biotin-labeled human PD-1 Fc protein (human, biotin-labeled (site not stated))
T1 construct: also called PD-1-Fc-biotin
Procedure: (§1) Plates were washed 4 times with wash buffer (PBS+0.05% Tween-20, PBST) and then blocked with 200 μl/well blocking buffer (5% w/v non-fatty milk in PBST) for 2 hours at 37° C. […] After a final wash, plates were incubated with 100 μl/well ELISA substrate TMB (Innoreagents). The reaction was stopped in 15 minutes at 25° C. with 50 μl/well 1M H₂SO₄, and the absorbance was read at 450 nm. Data were analyzed using Graphpad Prism software and EC₅₀ values were reported.

[2] = target: T1, biotin-labeled human PD-1 Fc protein; remark: listed apart in the source
Procedure: as §1

[3] = target: T1, biotin-labeled human PD-1 Fc protein; remark: listed apart in the source
Procedure: as §1

[4] = target: T1, biotin-labeled human PD-1 Fc protein; remark: listed apart in the source
Procedure: as §1

T1 sequence (chain, as listed by the source limits assumed): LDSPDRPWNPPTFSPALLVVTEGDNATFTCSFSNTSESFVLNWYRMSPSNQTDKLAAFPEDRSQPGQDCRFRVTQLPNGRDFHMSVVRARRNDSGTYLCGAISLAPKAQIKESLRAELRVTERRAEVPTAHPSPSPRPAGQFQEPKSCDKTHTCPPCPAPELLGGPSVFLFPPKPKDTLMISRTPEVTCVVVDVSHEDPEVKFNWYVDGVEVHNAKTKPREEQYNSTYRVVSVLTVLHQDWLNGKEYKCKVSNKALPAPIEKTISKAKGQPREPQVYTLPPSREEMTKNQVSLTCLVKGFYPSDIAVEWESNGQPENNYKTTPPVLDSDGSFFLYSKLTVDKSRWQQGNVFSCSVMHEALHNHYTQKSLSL

Binder	EC50 [2] [ng/mL]	EC50 [4] [ng/mL]	also measured
huD2A4-V1 (antibody, human IgG1, kappa, Humanized D2A4, human IgG1/kappa) heavy: not shown light: DIQMTQSPSSVSASVGDRVTITCLASQTIGTWLAWYQQKPGKSPKLLIYAATSLADGVPSRFSGSGSGTDFTLTISSLQPEDFATYYCQQVSSIPWTFGGGTKVEIKRTVAAPSVFIFPPSDEQLKSGTASVVCLLNNFYPREAKVQWKVDNALQSGNSQESVTEQDSKDSTYSLSSTLTLSKADYEKHKVYACEVTHQGLSSPVTKSFNRGEC	–	–	EC50 [1]: 0.385 ng/mL
huD2A4-V4 (antibody, human IgG1, kappa, V domains shown, Humanized D2A4, human IgG1/kappa) VH: EVQLVESGGGLVQPGGSLRLSCAASGFTFSSYTMSWVRQAPGKGLEWVATISGGGSNTYYPDSVKGRFTISRDNSKNTLYLQMNSLRAEDTAVYYCARQAFYSNYWYFDVWGAGTTVTVSS VL: DIQMTQSPSSVSASVGDRVTITCLASQTIGTWLAWYQQKPGKAPKLLIYAATSLADGVPSRFSGSGSGTDFTLTISSLQPEDFATYYCQQVSSIPWTFGGGTKVEIKR	–	–	EC50 [1]: 0.349 ng/mL
huD2A4-V3 (antibody, human IgG1, kappa, Humanized D2A4, human IgG1/kappa) heavy: not shown light: DIQMTQSPSSVSASVGDRVTITCLASQTIGTWLAWYQQKPGKSPKLLIYAATSLADGVPSRFSGSGSGTDFTLTISSLQPEDFATYYCQQVSSIPWTFGGGTKVEIKRTVAAPSVFIFPPSDEQLKSGTASVVCLLNNFYPREAKVQWKVDNALQSGNSQESVTEQDSKDSTYSLSSTLTLSKADYEKHKVYACEVTHQGLSSPVTKSFNRGEC	–	–	EC50 [1]: 0.55 ng/mL
huD2A4-V2 (antibody, human IgG1, kappa, Humanized D2A4, human IgG1/kappa) heavy: not shown light: DIQMTQSPSSVSASVGDRVTITCLASQTIGTWLAWYQQKPGKSPKLLIYAATSLADGVPSRFSGSGSGTDFTLTISSLQPEDFATYYCQQVSSIPWTFGGGTKVEIKRTVAAPSVFIFPPSDEQLKSGTASVVCLLNNFYPREAKVQWKVDNALQSGNSQESVTEQDSKDSTYSLSSTLTLSKADYEKHKVYACEVTHQGLSSPVTKSFNRGEC	–	–	EC50 [1]: 0.379 ng/mL
huD2H3-V1 (antibody, human IgG1, kappa, Humanized D2H3, human IgG1/kappa) heavy: not shown light: DIVLTQSPDSLAVSLGERATINCRASESVSLHGTRLMHWYQQKPGQPPKLLISLGSNLESGVPDRFSGSGSETDFTLTISSLQAEDVAVYFCQQSIEDPWTFGQGTKLEIKRTVAAPSVFIFPPSDEQLKSGTASVVCLLNNFYPREAKVQWKVDNALQSGNSQESVTEQDSKDSTYSLSSTLTLSKADYEKHKVYACEVTHQGLSSPVTKSFNRGEC	0.28	–	–
huD2H3-V12 (antibody, human IgG1, kappa, V domains shown, Humanized D2H3, human IgG1/kappa; also called huPD1-D2H3-V12) VH: EVQLVQSGAEVKKPGSSVKVSCKASGYTFTNYWMHWVRQAPGQGLEWMGAIFPRNSETNYNQKFKARVTITADESTSTAYMELSSLRSEDTAVYYCTRNRYGLDYWGQGTLVTVSS VL: DIVLTQSPDSLAVSLGERATINCRASESVSLHGTRLMHWYQQKPGQPPKLLISLGSNLESGVPDRFSGSGSETDFTLTISSLQAEDVAVYFCQQSIEDPWTFGQGTKLEIKR	–	–	EC50 [3]: 0.354 ng/mL
huD2H3-V7 (antibody, human IgG1, kappa, V domains shown, Humanized D2H3, human IgG1/kappa) VH: EVQLVQSGAEVKKPGSSVKVSCKSSGYTFTNYWMHWVRQAPGQGLEWIGAIFPRNSETNYNQKFKARATLTADTSTSTAYMELSSLRSEDTAVYYCTRNRYGLDYWGQGTLVTVSS VL: DIVLTQSPDSLAVSLGERATINCRASESVSLHGTRLMHWYQQKPGQPPKLLISLGSNLESGVPDRFSGSGSETDFTLTISSLQAEDVAVYFCQQSIEDPWTFGQGTKLEIKR	–	0.157	–
huD2H3-V5 (antibody, human IgG1, kappa, V domains shown, Humanized D2H3, human IgG1/kappa) VH: EVQLVQSGAEVKKPGSSVKVSCKSSGYTFTNYWMHWVRQAPGQGLEWIGAIFPRNSETNYNQKFKARATITADTSTSTAYMELSSLRSEDTAVYFCTRNRYGLDYWGQGTLVTVSS VL: DIVLTQSPDSLAVSLGERATINCRASESVSLHGTRLMHWYQQKPGQPPKLLISLGSNLESGVPDRFSGSGSETDFTLTISSLQAEDVAVYFCQQSIEDPWTFGQGTKLEIKR	0.32	–	–
huD2H3-V4 (antibody, human IgG1, kappa, V domains shown, Humanized D2H3, human IgG1/kappa) VH: EVQLVQSGAEVKKPGSSVKVSCKSSGYTFTNYWMHWVRQAPGQGLEWIGAIFPRNSETNYNQKFKARVTLTADTSTSTAYMELSSLRSEDTAVYFCTRNRYGLDYWGQGTLVTVSS VL: DIVLTQSPDSLAVSLGERATINCRASESVSLHGTRLMHWYQQKPGQPPKLLISLGSNLESGVPDRFSGSGSETDFTLTISSLQAEDVAVYFCQQSIEDPWTFGQGTKLEIKR	0.28	–	–
huD2H3-V2 (antibody, human IgG1, kappa, V domains shown, Humanized D2H3, human IgG1/kappa) VH: EVQLVQSGAEVKKPGSSVKVSCKASGYTFTNYWMHWVRQAPGQGLEWIGAIFPRNSETNYNQKFKARATLTADTSTSTAYMELSSLRSEDTAVYFCTRNRYGLDYWGQGTLVTVSS VL: DIVLTQSPDSLAVSLGERATINCRASESVSLHGTRLMHWYQQKPGQPPKLLISLGSNLESGVPDRFSGSGSETDFTLTISSLQAEDVAVYFCQQSIEDPWTFGQGTKLEIKR	0.21	–	–
huD2H3-V11 (antibody, human IgG1, kappa, V domains shown, Humanized D2H3, human IgG1/kappa) VH: EVQLVQSGAEVKKPGSSVKVSCKSSGYTFTNYWMHWVRQAPGQGLEWIGAIFPRNSETNYNQKFKARATLTADTSTSTAYMELSSLRSEDTAVYFCTRNRYGLDYWGQGTLVTVSS VL: DIVLTQSPDSLAVSLGERATINCRASESVSLHGTRLMHWYQQKPGQPPKLLISLGSNLESGVPDRFSGSGSETDFTLTISSLQAEDVAVYYCQQSIEDPWTFGQGTKLEIKR	–	0.17	–
huD2H3-V9 (antibody, human IgG1, kappa, V domains shown, Humanized D2H3, human IgG1/kappa) VH: EVQLVQSGAEVKKPGSSVKVSCKSSGYTFTNYWMHWVRQAPGQGLEWIGAIFPRNSETNYNQKFKARATLTADTSTSTAYMELSSLRSEDTAVYFCTRNRYGLDYWGQGTLVTVSS VL: DIVLTQSPDSLAVSLGERATINCRASESVSLHGTRLMHWYQQKPGQPPKLLIYLGSNLESGVPDRFSGSGSETDFTLTISSLQAEDVAVYFCQQSIEDPWTFGQGTKLEIKR	–	0.358	–

The next lines start with results.

EC50 [2] [ng/mL]	EC50 [4] [ng/mL]	Binder	also measured
0.17	–	huD2H3-V6 (antibody, human IgG1, kappa, V domains shown, Humanized D2H3, human IgG1/kappa) VH: EVQLVQSGAEVKKPGSSVKVSCKSSGYTFTNYWMHWVRQAPGQGLEWIGAIFPRNSETNYNQKFKARATLTADESTSTAYMELSSLRSEDTAVYFCTRNRYGLDYWGQGTLVTVSS VL: DIVLTQSPDSLAVSLGERATINCRASESVSLHGTRLMHWYQQKPGQPPKLLISLGSNLESGVPDRFSGSGSETDFTLTISSLQAEDVAVYFCQQSIEDPWTFGQGTKLEIKR	–
–	0.171	huD2H3-V8 (antibody, human IgG1, kappa, Humanized D2H3, human IgG1/kappa) heavy: not shown light: DIVMTQSPDSLAVSLGERATINCRASESVSLHGTRLMHWYQQKPGQPPKLLISLGSNLESGVPDRFSGSGSETDFTLTISSLQAEDVAVYFCQQSIEDPWTFGQGTKLEIKRTVAAPSVFIFPPSDEQLKSGTASVVCLLNNFYPREAKVQWKVDNALQSGNSQESVTEQDSKDSTYSLSSTLTLSKADYEKHKVYACEVTHQGLSSPVTKSFNRGEC	–
–	0.505	huD2H3-V10 (antibody, human IgG1, kappa, V domains shown, Humanized D2H3, human IgG1/kappa) VH: EVQLVQSGAEVKKPGSSVKVSCKSSGYTFTNYWMHWVRQAPGQGLEWIGAIFPRNSETNYNQKFKARATLTADTSTSTAYMELSSLRSEDTAVYFCTRNRYGLDYWGQGTLVTVSS VL: DIVLTQSPDSLAVSLGERATINCRASESVSLHGTRLMHWYQQKPGQPPKLLISLGSNLESGVPDRFSGSGSGTDFTLTISSLQAEDVAVYFCQQSIEDPWTFGQGTKLEIKR	–
0.19	–	huD2H3-V3 (antibody, human IgG1, kappa, V domains shown, Humanized D2H3, human IgG1/kappa) VH: EVQLVQSGAEVKKPGSSVKVSCKSSGYTFTNYWMHWVRQAPGQGLEWMGAIFPRNSETNYNQKFKARATLTADTSTSTAYMELSSLRSEDTAVYFCTRNRYGLDYWGQGTLVTVSS VL: DIVLTQSPDSLAVSLGERATINCRASESVSLHGTRLMHWYQQKPGQPPKLLISLGSNLESGVPDRFSGSGSETDFTLTISSLQAEDVAVYFCQQSIEDPWTFGQGTKLEIKR	–

Source: patent US20210095032A1 (SALUBRIS CHENGDU BIOTECH, published 2021)
